± gives the uncertainty stated by the source.

Abundance fitness data for 34 variants are collected here from the Human Domainome abundance scans (Beltran et al. 2025).

B1: Protein C-ets-1, residues 55 to 135; numbered along this chain, P14921 (parent)
chain: GFTKEQQRLGIPKDPRQWTETHVRDWVMWAVNEFSLKGVDFQKFCMNGAALCALGKDCFLELAPDFVGDILWEHLEILQKE

Variants of B1 are the subject of the series. Put plainly: abundance fitness (aPCA) (normalised: wild type 0, dead -1); higher = more abundant; growth selection in yeast, the domain comes from the species named. The following applies: Homo sapiens.
On to GFTKEQQRLGIPKDPRQWTETHVRDWVMWAVNEFSLKGVDFQKFCMNGAALCALGKDCFLELAPDFVGDILWEHLCILQKE [E76C], for which the abundance fitness was -0.092 ± 0.051.
With GFTKEQQRLGIPKDPRQWTETHVRDWVMWAVNEFSLKGVDFQKFCMNGAALCALGKDCFLELAPDFVGDILWEHLWILQKE [E76W], the abundance fitness is -0.109 ± 0.051.
With GFTKEQQRLGIPKDPRQWTETHVRDWVMWAVNEFSLKGVDFQKFCMNGAALCALGKDCFLELAPDFVGDILWEHLMILQKE [E76M], the abundance fitness worked out at 0.04 ± 0.063.
As for GFTKEQQRLGIPKDPRQWTETHVCDWVMWAVNEFSLKGVDFQKFCMNGAALCALGKDCFLELAPDFVGDILWEHLEILQKE [R24C], the abundance fitness is -0.111 ± 0.068.
Regarding GFTKEQQRLGIPKDPRQWTETHVRDWVMWAVNEFSLKGVDFQKFCMNGAALCALGKDCFLELAPDFVGDNLWEHLEILQKE [I70N], the abundance fitness was -0.546 ± 0.096.
GFTKEQQRLGIPKDPRQWTETHVRDWVMWAVNEFSLKGVDFQKFCMNGAALCALGKDCFLELAPDFVGDMLWEHLEILQKE [I70M]: the abundance fitness was -0.102 ± 0.063.
For the variant GFTKEQQRLGIPKDPRQWHETHVRDWVMWAVNEFSLKGVDFQKFCMNGAALCALGKDCFLELAPDFVGDILWEHLEILQKE [T19H], the abundance fitness was -0.153 ± 0.096.
The same measure for GFTKEQQRLGIPKDPRQWWETHVRDWVMWAVNEFSLKGVDFQKFCMNGAALCALGKDCFLELAPDFVGDILWEHLEILQKE [T19W]: -0.945 ± 0.11; for GFTKEQQRLGIPKDPRQWTETHVRDWVLWAVNEFSLKGVDFQKFCMNGAALCALGKDCFLELAPDFVGDILWEHLEILQKE [M28L]: -0.022 ± 0.031; for GFTKEQQRLGIPKDPRQWTETHVRDWVMWAVNEFSLKGVDFQKFCMNGAALCALGKDCFLELAPDFVGDILWGHLEILQKE [E73G]: -0.08 ± 0.036.
For GFTKEQQRLGIPKDPRQWTETHVRDWVMWAVNEFSLKGVDFQKFCMPGAALCALGKDCFLELAPDFVGDILWEHLEILQKE [N47P], the abundance fitness came to 0.014 ± 0.044.
On to GFTKEQQRLGIPKDPRQWTETHVRDWVMWAVNEFSLKGVDFQKFCMVGAALCALGKDCFLELAPDFVGDILWEHLEILQKE [N47V], for which the abundance fitness was -0.903 ± 0.081.
On to GFTKEQQFLGIPKDPRQWTETHVRDWVMWAVNEFSLKGVDFQKFCMNGAALCALGKDCFLELAPDFVGDILWEHLEILQKE [R8F], for which the abundance fitness was -0.091 ± 0.074.
Next, GFTKEQQRLGIPKDPRQWTETHVRDWVMWAVNEQSLKGVDFQKFCMNGAALCALGKDCFLELAPDFVGDILWEHLEILQKE [F34Q]: -0.358 ± 0.047; GFTKEQQRLGIPKDPRQWTETHVRDWVMWAVNEFSLKGIDFQKFCMNGAALCALGKDCFLELAPDFVGDILWEHLEILQKE [V39I]: -0.061 ± 0.06.
The same measure for GFTKEQQRLGIPKDPRQWTETHVRDWVMWAVNEFSLKGADFQKFCMNGAALCALGKDCFLELAPDFVGDILWEHLEILQKE [V39A]: -0.511 ± 0.043; for GFTKEQQRLGIPKDPRQWTETGVRDWVMWAVNEFSLKGVDFQKFCMNGAALCALGKDCFLELAPDFVGDILWEHLEILQKE [H22G]: -0.565 ± 0.043.
Next, GFTKEQQRLGIPKDPRQWTETHVRDWVMWAVNEFSLKGVDFQKFCMNGAALCALGKDCFLLLAPDFVGDILWEHLEILQKE [E61L]: -0.248 ± 0.045; GFTKEQQRLGIPKDPRQWTETHVRDWVMWAVNEFSLKGVDFQKFCMNGAALCALGKDCFLHLAPDFVGDILWEHLEILQKE [E61H]: -0.089 ± 0.11; GFTKEQQRLGIPKDPRQWTETHVRDWVMWAVNEFSLKGVDFQKFCMNGAFLCALGKDCFLELAPDFVGDILWEHLEILQKE [A50F]: -0.375 ± 0.084.
With GFTKEQQRLGIPKDPRQWTETHVRDWVMWAVNEFSLKGVDFQKFCMNRAALCALGKDCFLELAPDFVGDILWEHLEILQKE [G48R], the abundance fitness is -0.933 ± 0.085.
Regarding GFTKEQQRLGIPKDPRIWTETHVRDWVMWAVNEFSLKGVDFQKFCMNGAALCALGKDCFLELAPDFVGDILWEHLEILQKE [Q17I], the abundance fitness was -0.114 ± 0.081.
For the variant GFTKEQQRLGIPKDPRTWTETHVRDWVMWAVNEFSLKGVDFQKFCMNGAALCALGKDCFLELAPDFVGDILWEHLEILQKE [Q17T], the abundance fitness came out at 0.033 ± 0.053.
Next, GFTKEQQRLGIPKDPRQWTETHVRDWVMWAVNEFSLKGVDFQKFCMNGAALCALGKDCFLELAPDFVGDILWEHLEILHKE [Q79H]: -0.178 ± 0.12; GFTKEQQRLGIPKDPRQWTETHVRDWVMWAVNEFSLKGVDFQKFCMNGAALCALGKDHFLELAPDFVGDILWEHLEILQKE [C58H]: 0.039 ± 0.056.
Next, GFTKEQQRLGIPKDPRQWTETHVRDWVMWAVNEFSLKGVDFQKFCMNGAALCALGKDCFLELAPDFVGDILWEHLEIPQKE [L78P]: -0.513 ± 0.048; GFTKEQQRLGIPKDPRQWTETHVRDWVMWAVNEFSLKGVDFQKFCMNGAALCALGKDCFLELAPDFVGDILWEHLEIYQKE [L78Y]: -0.463 ± 0.091; GFTKEQQRLGIPKDPRQWTETHVRDWVMWAVNEFSLKGVDFQKFCMNGAALCILGKDCFLELAPDFVGDILWEHLEILQKE [A53I]: -0.452 ± 0.075.
Next, GFTKEQQRLGRPKDPRQWTETHVRDWVMWAVNEFSLKGVDFQKFCMNGAALCALGKDCFLELAPDFVGDILWEHLEILQKE [I11R]: -0.132 ± 0.038; GFTKEQQRLGYPKDPRQWTETHVRDWVMWAVNEFSLKGVDFQKFCMNGAALCALGKDCFLELAPDFVGDILWEHLEILQKE [I11Y]: -0.207 ± 0.047; GFTKEQQRLGIPKDPRQWTETHVRCWVMWAVNEFSLKGVDFQKFCMNGAALCALGKDCFLELAPDFVGDILWEHLEILQKE [D25C]: -0.01 ± 0.048.
With GFTKEQQRLGIPKDPRQWTETHVRDWVMWAVNEFSLKGVDFQKFCMNGAALCALGKDCFLELAPDFVGDILIEHLEILQKE [W72I], the abundance fitness was -1.06 ± 0.46.
In the case of GFTKMQQRLGIPKDPRQWTETHVRDWVMWAVNEFSLKGVDFQKFCMNGAALCALGKDCFLELAPDFVGDILWEHLEILQKE [E5M], the abundance fitness was -0.018 ± 0.059.
Take GFTKEQQRLGIPKDPRQWTETHVRDWVMWAVNEFSLKGVDFQKFCMNGAALCALGKDCFLELAPDFVVDILWEHLEILQKE [G68V]: the abundance fitness was -0.261 ± 0.026.
